Assay [1] has as its target human CD4 on cells (SKW3 cells; human PBMCs) (human) (UniProt P01730). The assay is described as follows: SKW3 FACS binning, OKT4a on SKW3 cells, anti-hu A647 secondary, without competing supernatant (background 5000).
Assay [2] has the same target. The assay is described as follows: SKW3 FACS binning, OKT4-A488 on SKW3 cells without competing supernatant (background 2163).
For assay [3] the target is unchanged. The assay is described as follows: SKW3 FACS binning, RPA-T4-PE-Dazzle 594 on SKW3 cells without competing supernatant (background 783).

In the case of Human anti-human CD4 (OKT4a) (antibody), in assay [1], the Max Binding is 35000. Regarding “Mouse anti-human CD4 (OKT4), Alexa Fluor 488 conjugated (antibody)”, the Max Binding in assay [2] came out at 8200. In assay [3], “Mouse anti-human CD4 (RPA-T4), PE-Dazzle 594 conjugated (antibody)” had a Max Binding of 15000.

(Values after patent US20220112288A1.)
